{"source": "patent US10273464B2", "about": "“Methods and isolated protein compositions for isoprenoid diphosphate synthesis” (The Salk Institute for Biological Studies, priority 2009, dated 2019)", "molecules": {"B1": {"name": "IPK-Mjannaschii H60A: M. jannaschii IPK with His60 mutated to Ala (protein, UniProt Q60352 1-260, looked up, variant H60A)", "Isopentenyl phosphate kinase": "MLTILKLGGSILSDKNVPYSIKWDNLERIAMEIKNALDYYKNQNKEIKLILVHGGGAFGAPVAKKYLKIEDGKKIFINMEKGFWEIQRAMRRFNNIIIDTLQSYDIPAVSIQPSSFVVFGDKLIFDTSAIKEMLKRNLVPVIHGDIVIDDKNGYRIISGDDIVPYLANELKADLILYATDVDGVLIDNKPIKRIDKNNIYKILNYLSGSNSIDVTGGMKYKIDMIRKNKCRGFVFNGNKANNIYKALLGEVEGTEIDFSE"}, "B2": {"name": "I86A: IPK single mutant, residue 86 Ile to Ala (protein, listed as Methanocaldococcus jannaschii)", "chain": "B1 Isopentenyl phosphate kinase with A60H, I86A, D223E"}, "B3": {"name": "F83A/I86A/I156A: IPK triple mutant F83A, I86A, I156A (protein)", "chain": "B1 Isopentenyl phosphate kinase with A60H, F83A, I86A, I156A, D223E"}, "B4": {"name": "I146A: IPK single mutant, residue 146 Ile to Ala (protein, listed as Methanocaldococcus jannaschii)", "chain": "B1 Isopentenyl phosphate kinase with A60H, I146A, D223E"}, "B5": {"name": "I146V: IPK mutant, residue 146 Ile to Val (protein, listed as Methanocaldococcus jannaschii)", "chain": "B1 Isopentenyl phosphate kinase with A60H, I146V, D223E"}, "B6": {"name": "I156V: IPK mutant, residue 156 Ile to Val (protein, listed as Methanocaldococcus jannaschii)", "chain": "B1 Isopentenyl phosphate kinase with A60H, I156V, D223E"}, "B7": {"name": "I86A/I146A: IPK double mutant I86A and I146A (protein)", "chain": "B1 Isopentenyl phosphate kinase with A60H, I86A, I146A, D223E"}, "B8": {"name": "IPK-Mjannaschii H60N: M. jannaschii IPK with His60 mutated to Asn (protein, UniProt Q60352 1-260, looked up, variant H60N)", "Isopentenyl phosphate kinase": "B1 Isopentenyl phosphate kinase with A60N"}, "B9": {"name": "IPK-Mjannaschii H60Q: M. jannaschii IPK with His60 mutated to Gln (protein, UniProt Q60352 1-260, looked up, variant H60Q)", "Isopentenyl phosphate kinase": "B1 Isopentenyl phosphate kinase with A60Q"}, "B10": {"name": "IPK-Mjannaschii: isopentenyl phosphate kinase from Methanocaldococcus jannaschii, SEQ ID NO:1, wild type (protein, listed as Methanocaldococcus jannaschii)", "chain": "B1 Isopentenyl phosphate kinase with A60H, D223E"}, "B11": {"name": "UMPK from Sulfolobus solfataricus: uridine monophosphate kinase from Sulfolobus solfataricus, literature comparison (Jensen et al., 2007) (protein, UniProt Q97ZE2 1-227, looked up)", "Uridylate kinase": "MMNIILKISGKFFDEDNVDNLIVLRQSIKELADNGFRVGIVTGGGSTARRYIKLAREIGIGEAYLDLLGIWASRLNAYLVMFSLQDLAYMHVPQSLEEFIQDWSHGKVVVTGGFQPGQSTAAVAALVAEASSSKTLVVATNVDGVYEKDPRIYADVKLIPHLTTQDLRKILEGSQSVQAGTYELLDPLAIKIVERSKIRVIVMNYRKLNRIIDILKGEEVSSIIEPV"}, "B12": {"name": "IPK-Mmaripaludis: isopentenyl phosphate kinase homolog from Methanococcus maripaludis, SEQ ID NO:8 (protein, listed as Methanococcus maripaludis)", "chain": "MFAILKLGGSILCDKNVPYSINWENLENIAIEIKEAIEYYSSKNEDFKLIIVHGGGSFGHPVAKKYLKNEKFEDMGKGYWEIQKAMRKFNNIVIEELQNFEPAVSIQASSFITFNHKSNLHFDTNAIEKMLDKGLIPVIHGDIVIDEKTDNFKIFSGDHALPFLSKKLNPDLSLHASDVDGVWDSEFKIIENINSKNIEDVLKSLKPSNKEDVTGGMHLKVMECYNLGIETIIFNGNKKRNIYNALLKNVKGTLIN"}}, "key": {"[1]": {"test": "pyruvate kinase-lactate dehydrogenase coupled assay, IP as variable substrate", "assay_type": "biochemical", "conditions": "25° C.; for kinase activity (rate of IP turnover): relevant concentrations of IP and enzyme", "experimental": "All specific activity and kinetic measurements were performed using the pyruvate kinase-lactate dehydrogenase coupled assay with reference to a previously established protocol (Lindsley, 2001, Methods Mol. Biol. 95:57-64.). The reaction includes the following components in a 200 ul volume: 7 U pyruvate kinase, 10 U lactate dehydrogenase, 2 mM phosphoenolpyruvate, 0.16 mM NADH, 50 mM TRIS HCl pH 8.0, 100 mM KCl, 8 mM MgCl2, 4 mM ATP, and variable concentrations of IP (purchased from Larodan Fine Chemicals). The reaction was initiated by the addition of IPK (0.15 ug) and was followed by observing the depletion of NADH at 340 nm over time, expressed as Δ(AU340)/Δt, which was converted to Δ(ADP)/Δt. These values were then plotted against substrate concentration in GraphPad Prism® (Version 5.01 for Windows) to compute the kinetic parameters kcat and Km using the “nonlinear regression enzyme kinetic analysis” option.\nFrom the results discussed above, it is evident that His60 from IPK plays an important role in both substrate and product binding. This is accomplished through a hydrogen bonding interaction between the Nε2 atom of His60 and a non-bridging O atom from the terminal phosphate group on either the substrate (IP) or the product (IPP). From all crystal structure data, it is apparent that the Nε2 group of His60 (and not the Nδ1 group) is relevant for binding and may therefore be reasonably assumed by one skilled in the art to be relevant for IPK-mediated catalysis. To confirm this hypothesis, His60 was mutated to Ala, Asn, and Gln. The Asn and Gln mutations were made based on the rationale that their side chains contain N atoms that are isosteric with the Nδ1 and Nε2 groups on His, respectively."}, "[2]": {"test": "coupled IPK / 5-epi-aristolochene synthase (TEAS) vial assay, GC-MS, FP to FPP conversion", "assay_type": "biochemical", "conditions": "10 μM IPK, 150 μM FP, ATP, Mg, pH 8.0, 20 minutes at 55° C., 5-epi-aristolochene quantified by GC-MS", "experimental": "FIG. 10: Assays of IPK and mutants. The single mutants of IPK, I86A and I146A, and the double mutant I86A/I146A, were tested with the C15-substrate farnesyl monophosphate (FP) using a coupled assay with a terpene cyclase (TEAS). In the first step of the reaction, IPK was incubated with magnesium, ATP, and FP at pH 8.0 for 20 minutes at 55° C. (assuming sufficient time for conversion of FP to FPP). In the second step of the reaction, a small sample of the first reaction was added to a glass vial containing magnesium and a sesquiterpene cyclase known as tobacco 5-epi-aristolochene synthase (TEAS), and this reaction was incubated overnight at 25° C. Assuming complete conversion of FPP to 5-epi-aristolochene, the reaction was extracted with ethyl acetate and the amount of 5-epi-aristolochene was quantified by GC-MS analysis.\nFIGS. 11A-11B: Farnesyl phosphate (FP) phosphorylation by IPK chain length mutants. FIG. 11A: FIG. 11A depicts the coupled IPK-sesquiterpene synthase reaction used to test for FP transphosphorylation. FIG. 11B: FIG. 11B depicts comparative bar graph showing several IPK mutants qualitatively tested for their ability to convert FP to FPP, expressed as a percentage of maximal production of 5-epi-aristolocene produced from IPK-generated FPP using wild-type IPK and identical concentrations of wild-type tobacco 5-epi-aristolochene synthase incubated for equivalent lengths of time.\nIPK mutants (at a final concentration of 10 μM) were incubated in a 50 μl reaction with 150 μM farnesyl monophosphate (FP), 7 mM MgCl2, 4 mM ATP, and 50 mM TRIS.HCl pH 8.0 for 20 minutes at 55° C. 10 μl of this reaction was then added to a 500 μl reaction containing 45 ug of the terpene cyclase 5-epi-aristolochene synthase (TEAS) and 10 mM MgCl2 in a 3-component buffer system (25 mM MES, 50 mM TRIS.HCl, 25 mM CAPS) at pH 7.0. A method known as the “vial assay” (O'Maille et al., 2004, Anal. Biochem. 335:210-217) was employed by overlaying this aqueous layer with 500 μl of ethyl acetate, incubating overnight at 25° C., and vortexing to extract the terpene product into the organic layer prior to quantitative GC-MS analysis. Both negative and positive control reactions were conducted as follows. For the negative control, no IPK was added to the first reaction. For the positive control, […] of FPP (equivalent to the amount that would be present assuming complete FP to FPP turnover) was added to the TEAS reaction.\nSimilar studies were conducted using FPP modeled into the active site of IPK. The reaction of IPK on FP to form FPP is depicted in FIG. 10. The I146A I86A single-residue mutations, and the […] double mutation were tested with the C15-substrate farnesyl monophosphate (FP) using a coupled assay with a terpene cyclase (TEAS). In the first step of the reaction, IPK was incubated with magnesium, ATP, and FP at pH 8.0 for 20 minutes at 55° C., which was judged as sufficient time for conversion of FP to FPP. In the second step of the reaction, a small sample of the first reaction was added to a glass vial containing magnesium and a sesquiterpene cyclase known as tobacco 5-epi-aristolochene synthase (TEAS), and this reaction was incubated overnight at 25° C. Assuming complete conversion of FPP to 5-epi-aristolochene, the reaction was extracted with ethyl acetate and the amount of 5-epi-aristolochene was quantitated by GC-MS analysis."}, "[3]": {"test": "pyruvate kinase-lactate dehydrogenase coupled assay, Km for ATP", "assay_type": "biochemical", "conditions": "25° C.", "experimental": "All specific activity and kinetic measurements were performed using the pyruvate kinase-lactate dehydrogenase coupled assay with reference to a previously established protocol (Lindsley, 2001, Methods Mol. Biol. 95:57-64.). […] The reaction was initiated by the addition of IPK (0.15 ug) and was followed by observing the depletion of NADH at 340 nm over time, expressed as Δ(AU340)/Δt, which was converted to Δ(ADP)/Δt. These values were then plotted against substrate concentration in GraphPad Prism® (Version 5.01 for Windows) to compute the kinetic parameters kcat and Km using the “nonlinear regression enzyme kinetic analysis” option."}, "[4]": {"conditions": "read-out: Km value for ATP; cited from earlier work"}, "[5]": {"conditions": "read-out: Km value for UMP; cited from earlier work"}, "[6]": {"conditions": "measured in one instance (other than Table 4)"}}, "note": "Numbering of substitutions follows the chain as printed. In names and notes the source's numbering stands. Entries after “also recorded” stand apart in the source; their conditions may differ. Where two headings read alike, the source gives them in different places.", "data": [{"molecule": "B1", "values": [{"measurement": "kinase activity (rate of IP turnover)", "setting": "[1]", "result": "immeasurable; also recorded: no measurable activity"}]}, {"molecule": "B2", "values": [{"measurement": "conversion (phosphorylation) of FP to FPP", "setting": "[2]", "result": "significant percentage of FP; also recorded: significant percentage of substrate"}]}, {"molecule": "B3", "values": [{"measurement": "conversion (phosphorylation) of FP to FPP", "setting": "[2]", "result": "greatest turnover"}]}, {"molecule": "B4", "values": [{"measurement": "conversion (phosphorylation) of FP to FPP", "setting": "[2]", "result": "significant percentage of FP; also recorded: significant percentage of substrate"}]}, {"molecule": "B5", "values": [{"measurement": "conversion (phosphorylation) of FP to FPP", "setting": "[2]", "result": "decreased activity"}]}, {"molecule": "B6", "values": [{"measurement": "conversion (phosphorylation) of FP to FPP", "setting": "[2]", "result": "decreased activity"}]}, {"molecule": "B7", "values": [{"measurement": "conversion (phosphorylation) of FP to FPP", "setting": "[2]", "result": "significant percentage of substrate"}, {"measurement": "conversion (phosphorylation) of FP to FPP", "setting": "[2]; listed as I146A/I146A", "result": "significant percentage of FP"}]}, {"molecule": "B8", "values": [{"measurement": "kinase activity (rate of IP turnover)", "setting": "[1]", "result": "immeasurable; also recorded: no measurable activity"}]}, {"molecule": "B9", "values": [{"measurement": "Km", "setting": "[1]", "result": 34.5, "unit": "µM"}, {"measurement": "kcat", "setting": "[1]", "result": "0.040 ± 0.002", "unit": "s⁻¹"}, {"measurement": "kinase activity (rate of IP turnover)", "setting": "[1]", "result": "able to turn over a measurable amount of IP"}, {"measurement": "Km for IP, fold larger than wild type", "setting": "[1]; versus wild type IPK", "result": 8, "unit": "fold"}, {"measurement": "kcat, fold slower than wild type", "setting": "[1]; versus wild type IPK", "result": "~40", "unit": "fold"}, {"measurement": "kcat", "setting": "[1]; listed as H60Q", "result": 0.04, "unit": "s⁻¹"}, {"measurement": "Km", "setting": "[3]", "result": 559, "unit": "µM"}]}, {"molecule": "B10", "values": [{"measurement": "Km", "setting": "[1]", "result": "4.3 ± 0.6", "unit": "µM"}, {"measurement": "kcat", "setting": "[1]", "result": "1.46 ± 0.03", "unit": "s⁻¹"}, {"measurement": "conversion (phosphorylation) of FP to FPP", "setting": "[2]", "result": "significantly less phosphorylation"}, {"measurement": "Km", "setting": "[3]", "result": 198, "unit": "µM"}]}, {"molecule": "B11", "values": [{"measurement": "Km", "setting": "[4]", "result": 81, "unit": "µM"}, {"measurement": "Km", "setting": "[5]", "result": 14, "unit": "µM"}]}, {"molecule": "B12", "values": [{"measurement": "Km", "setting": "[1]", "result": "21.4 ± 4.2", "unit": "µM"}, {"measurement": "kcat", "setting": "[1]", "result": "13.1 ± 0.5", "unit": "s⁻¹"}, {"measurement": "Km", "setting": "[1]; [6]", "result": 16.1, "unit": "µM"}, {"measurement": "Km", "setting": "[3]; [6]", "result": "96 ± 6", "unit": "µM"}]}]}
